Results published in patent publication US20170240645A1 (Genentech, published 2017).

Key:
[1] = target: T1, PMEL17 N-terminal deletion mutant Δ100 (human, UniProt P40967 101-661); assay: immunoblot of cell lysates
T1 construct: the real construct lacks the N-terminal part; Tested in cell lysates by immunoblot
T1 sequence: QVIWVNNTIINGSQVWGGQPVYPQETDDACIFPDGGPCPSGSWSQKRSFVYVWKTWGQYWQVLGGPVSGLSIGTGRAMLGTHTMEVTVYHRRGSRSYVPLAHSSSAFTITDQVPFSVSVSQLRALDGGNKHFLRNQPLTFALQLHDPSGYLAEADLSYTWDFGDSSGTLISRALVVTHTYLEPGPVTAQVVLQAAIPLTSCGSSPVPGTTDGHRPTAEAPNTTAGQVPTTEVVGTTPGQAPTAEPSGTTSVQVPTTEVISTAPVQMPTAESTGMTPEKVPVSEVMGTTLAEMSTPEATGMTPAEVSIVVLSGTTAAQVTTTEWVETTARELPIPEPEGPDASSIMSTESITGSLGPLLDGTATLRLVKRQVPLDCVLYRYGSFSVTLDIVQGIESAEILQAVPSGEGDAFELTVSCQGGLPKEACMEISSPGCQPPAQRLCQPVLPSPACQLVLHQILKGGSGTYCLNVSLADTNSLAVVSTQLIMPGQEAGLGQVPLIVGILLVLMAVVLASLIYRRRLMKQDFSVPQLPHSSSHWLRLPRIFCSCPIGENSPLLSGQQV

[2] = target: T2, PMEL17 N-terminal deletion mutant Δ255 (human, UniProt P40967 256-661); assay: immunoblot of cell lysates
T2 construct: the real construct lacks the N-terminal part; Tested in cell lysates by immunoblot
T2 sequence: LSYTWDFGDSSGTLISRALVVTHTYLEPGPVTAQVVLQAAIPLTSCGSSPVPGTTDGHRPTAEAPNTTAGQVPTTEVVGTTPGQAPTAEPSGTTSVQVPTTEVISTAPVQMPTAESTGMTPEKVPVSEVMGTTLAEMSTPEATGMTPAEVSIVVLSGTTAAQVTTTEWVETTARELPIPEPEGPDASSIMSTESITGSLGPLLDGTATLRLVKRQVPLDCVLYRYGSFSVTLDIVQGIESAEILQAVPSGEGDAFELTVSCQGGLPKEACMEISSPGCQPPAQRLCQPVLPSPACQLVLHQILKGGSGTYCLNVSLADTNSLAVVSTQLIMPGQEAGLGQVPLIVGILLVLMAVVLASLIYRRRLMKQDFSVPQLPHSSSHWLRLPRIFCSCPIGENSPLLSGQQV

[3] = target: T3, full-length human PMEL17 with an N-terminal gD tag (human, UniProt P40967 25-661); assay: immunoblot of cell lysates
T3 construct: it is left out here; also called full-length PMEL17; N-terminal gD tagged PMEL17 (human)
T3 sequence: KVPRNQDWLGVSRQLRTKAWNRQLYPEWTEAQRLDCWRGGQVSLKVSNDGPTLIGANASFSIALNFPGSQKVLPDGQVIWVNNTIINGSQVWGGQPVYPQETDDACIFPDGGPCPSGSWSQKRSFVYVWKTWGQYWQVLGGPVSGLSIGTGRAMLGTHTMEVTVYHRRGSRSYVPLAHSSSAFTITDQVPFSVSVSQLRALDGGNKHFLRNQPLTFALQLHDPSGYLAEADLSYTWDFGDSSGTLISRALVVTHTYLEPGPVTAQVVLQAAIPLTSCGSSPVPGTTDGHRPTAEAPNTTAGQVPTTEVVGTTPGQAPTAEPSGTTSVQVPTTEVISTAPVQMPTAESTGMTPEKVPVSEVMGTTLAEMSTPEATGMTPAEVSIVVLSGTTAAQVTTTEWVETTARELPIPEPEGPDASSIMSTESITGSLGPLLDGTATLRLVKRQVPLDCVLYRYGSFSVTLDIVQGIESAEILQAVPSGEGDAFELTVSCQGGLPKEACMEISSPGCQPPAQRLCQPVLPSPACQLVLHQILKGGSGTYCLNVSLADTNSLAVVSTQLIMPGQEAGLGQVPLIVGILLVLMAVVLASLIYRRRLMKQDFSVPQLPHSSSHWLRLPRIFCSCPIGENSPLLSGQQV

[4] = target: T4, mouse PMEL17 with an N-terminal gD tag (mouse, UniProt Q60696 26-626); assay: FACS, 293S cells stably transfected with gD tagged PMEL17, 10 µg/ml 17A9
T4 construct: On stably transfected 293S cells; also called N-terminal gD tagged PMEL17 (mouse)
T4 sequence: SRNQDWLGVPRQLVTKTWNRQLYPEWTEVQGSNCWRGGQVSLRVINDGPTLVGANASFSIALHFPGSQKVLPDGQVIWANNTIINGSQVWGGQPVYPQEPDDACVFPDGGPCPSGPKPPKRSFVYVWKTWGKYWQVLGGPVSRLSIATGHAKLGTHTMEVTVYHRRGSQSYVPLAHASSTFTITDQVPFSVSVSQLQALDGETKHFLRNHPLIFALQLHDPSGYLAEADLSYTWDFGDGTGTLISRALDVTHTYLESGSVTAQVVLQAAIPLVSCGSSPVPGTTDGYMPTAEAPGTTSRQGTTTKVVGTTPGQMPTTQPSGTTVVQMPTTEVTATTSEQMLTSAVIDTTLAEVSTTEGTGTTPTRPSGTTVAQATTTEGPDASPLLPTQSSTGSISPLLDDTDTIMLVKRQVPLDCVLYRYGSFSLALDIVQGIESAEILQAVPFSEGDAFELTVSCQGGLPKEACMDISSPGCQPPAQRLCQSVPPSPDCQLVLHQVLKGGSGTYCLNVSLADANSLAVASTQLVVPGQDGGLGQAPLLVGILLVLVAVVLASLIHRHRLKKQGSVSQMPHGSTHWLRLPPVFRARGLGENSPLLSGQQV
Description: Antibody 17A9 was tested to determine if it cross-reacts with PMEL17 from species other than human. […] All of the sequences include the signal sequence except for the cynomolgus monkey PMEL17. Residues that are identical among all four species are indicated by asterisks (*). In the region where the rat sequence has a deletion, residues that are identical among the remaining three species are indicated by a plus (+). Binding to each species of PMEL17 was determined by FACS analysis using 293S cells stably transfected with an N-terminal gD tagged PMEL17 (human, cynomolgus monkey, rat, or mouse PMEL17); stained with 10 μg/ml 17A9 antibody; and detected with R-Phycoerythrin conjugated goat anti-mouse antibody.

binding result [1]: no binding | binding result [2]: no binding | binding result [3]: binds | binding result [4]: binds
B1: 17A9 (antibody, V domains shown)
VH: EVQLQQSGPELVKPGASMKISCKSSGYSFTRYTMNWVKQSHGKNLEWIGVINPYNGGTVYNQKFKGKATLTVDKSSSTAYMELLSLTSEDSAVYYCARTDYDGYAMDYWGQGTSVTVSS
VL: DVQITQSPSYLAASPGETITINCRATKSISKYLAWYQEQPGKTNNLLIYSGSTLQSGIPSRFSGSGSGTDFTLTISSLEPEDFAMYYCQQHNEYPYTFGSGTKLEIK
notes: Mouse monoclonal antibody from a hybridoma (mice immunized with PMEL17 ECD-Fc); also called anti-PMEL17 antibody 17A9
